Measurements: patent publication US20260265393A1 (SHANGHAI CELGEN BIO PHARMACEUTICAL, published 2026)
“And” between values parts separate entries of the source, which are not always exact repeats. Equal entries are not always repeated. Where two headings read alike, the source gives them in different places.

How the values were obtained:
[1] = molecular target: T1, CD27-mFc (Kangdai) (human, UniProt P26842 21-192, limits assumed); assay: competition ELISA: CD70 coated, CD27-mFc 4.3 µg/mL plus antibody dilutions; competitor CD70
T1 construct: Bought reagent; also called antigen CD27-mFc; solid-phase human CD27; not shown: mouse Fc (mFc)
T1 sequence (looked up): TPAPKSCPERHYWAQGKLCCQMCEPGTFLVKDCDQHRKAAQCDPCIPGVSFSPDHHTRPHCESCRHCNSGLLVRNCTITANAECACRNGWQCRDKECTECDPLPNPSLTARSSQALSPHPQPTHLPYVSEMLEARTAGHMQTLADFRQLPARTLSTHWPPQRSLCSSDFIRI

[2] = molecular target: T2, antigen CD27 (soluble, as used in the BLI and SPR experiments) (UniProt P26842 21-192, limits assumed); assay: BLI, antibody captured on AHC probe, CD27 in solution
T2 sequence (looked up): T1 sequence (looked up)

[3] = molecular target: T2, antigen CD27 (soluble, as used in the …); assay: SPR, Biacore T200, CM5 chip
[4] = molecular target: T3, human CD27 (transmembrane protein) on the cell membrane (human, UniProt P26842 20-260); assay: flow cytometry on CHO cells expressing human CD27
T3 construct: whole, on cells; One molecule is used for CD27 on CHO-CD27 cells, on human PBMC T and B cells and on Jurkat reporter cells; also called CHO-CD27
T3 sequence (looked up): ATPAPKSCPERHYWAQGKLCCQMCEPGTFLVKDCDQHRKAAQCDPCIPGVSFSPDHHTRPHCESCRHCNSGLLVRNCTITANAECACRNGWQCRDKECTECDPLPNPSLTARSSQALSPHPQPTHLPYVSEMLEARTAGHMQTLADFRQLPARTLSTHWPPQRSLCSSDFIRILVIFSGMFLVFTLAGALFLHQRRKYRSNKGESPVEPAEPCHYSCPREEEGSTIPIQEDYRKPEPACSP

[5] = molecular target: T1, CD27-mFc (Kangdai); assay: competition ELISA: CD70 coated, CD27-mFc plus antibody dilutions; competitor CD70
[6] = molecular target: T1, CD27-mFc (Kangdai); assay: ELISA on coated CD27-mFc
[7] = molecular target: T1, CD27-mFc (Kangdai); assay: ELISA on coated CD27-mFc; remark: listed apart in the source

- IC50 [1]: 1.47 µg/mL
- Kd [2]: 1.23 nM
- koff [2]: 0.000222 s⁻¹
- kon [2]: 181000 M⁻¹ s⁻¹
- Kd [3]: 0.781 nM
- koff [3]: 0.000954 s⁻¹
- kon [3]: 1.22e+06 M⁻¹ s⁻¹
- EC50 [4]: 2.49 µg/mL
- IC50 [5]: 2.06 µg/mL and 13.8 nM
- EC50 [6]: 0.0503 µg/mL and 0.337 nM
- EC50 [7]: 0.0344 µg/mL
B1: 13B3-hFc human-mouse chimeric CD27 monoclonal antibody (antibody, V domains shown)
VH: QVQLQQSGPEQVKPGASVKISCKTSGYAFSQSWMNWVKQRPGQGLEWIGRIYPGDGDTNYNGIFKGKATLTADKSSSTAYMQLSSLTSLDSAVYFCASMIRTTYVMDHWGQGTSVTVTS
VL: DIVLTQSPATLSVTPGDSVSLSCRASQSVSNSLHWYQQKSHESPRLLIMYTSQSISGIPSRFSGSGSGTDFTLSINSVETEDFGMYFCQQSNSWPLTFGAGTKLELK
notes: Mouse 13B3 variable regions on human constant regions (expression vectors P378 and P379, made in 293F cells)
